Values belong to the binder of their own block, whether it stands above or below them.
Experiments:
[1] = molecular target: T1, GST-tagged LRRK2(G2019S) (amino acids 970-2527) (human, UniProt Q5S007 970-2527, G2019S, autophosphorylated (10 uM cold ATP, 1 h, 30 C) before the binding arrays; sites not stated); test: peptide or protein array; BCCP-tagged full-length human proteins held on streptavidin-coated slides; overlaid with autophosphorylated GST-LRRK2(G2019S) (970-2527) or recombinant GST with cold ATP for 1 h at 30 C; washed in buffer with 0.5% SDS; detected with an Alexa 488-conjugated anti-GST antibody; conditions: both partners purified
T1 construct: leucine-rich repeat kinase 2 (LRRK2), human, amino acids 970-2527, with the Parkinson's disease-linked mutation G2019S; In the 33P arrays the kinase was not autophosphorylated beforehand, but ATP was present during the incubation; also called recombinant LRRK2(G2019S); leucine-rich repeat kinase 2; source: bought: Invitrogen; not shown: GST, N-terminal, kept
T1 sequence (Q5S007 970-2527 G2019S): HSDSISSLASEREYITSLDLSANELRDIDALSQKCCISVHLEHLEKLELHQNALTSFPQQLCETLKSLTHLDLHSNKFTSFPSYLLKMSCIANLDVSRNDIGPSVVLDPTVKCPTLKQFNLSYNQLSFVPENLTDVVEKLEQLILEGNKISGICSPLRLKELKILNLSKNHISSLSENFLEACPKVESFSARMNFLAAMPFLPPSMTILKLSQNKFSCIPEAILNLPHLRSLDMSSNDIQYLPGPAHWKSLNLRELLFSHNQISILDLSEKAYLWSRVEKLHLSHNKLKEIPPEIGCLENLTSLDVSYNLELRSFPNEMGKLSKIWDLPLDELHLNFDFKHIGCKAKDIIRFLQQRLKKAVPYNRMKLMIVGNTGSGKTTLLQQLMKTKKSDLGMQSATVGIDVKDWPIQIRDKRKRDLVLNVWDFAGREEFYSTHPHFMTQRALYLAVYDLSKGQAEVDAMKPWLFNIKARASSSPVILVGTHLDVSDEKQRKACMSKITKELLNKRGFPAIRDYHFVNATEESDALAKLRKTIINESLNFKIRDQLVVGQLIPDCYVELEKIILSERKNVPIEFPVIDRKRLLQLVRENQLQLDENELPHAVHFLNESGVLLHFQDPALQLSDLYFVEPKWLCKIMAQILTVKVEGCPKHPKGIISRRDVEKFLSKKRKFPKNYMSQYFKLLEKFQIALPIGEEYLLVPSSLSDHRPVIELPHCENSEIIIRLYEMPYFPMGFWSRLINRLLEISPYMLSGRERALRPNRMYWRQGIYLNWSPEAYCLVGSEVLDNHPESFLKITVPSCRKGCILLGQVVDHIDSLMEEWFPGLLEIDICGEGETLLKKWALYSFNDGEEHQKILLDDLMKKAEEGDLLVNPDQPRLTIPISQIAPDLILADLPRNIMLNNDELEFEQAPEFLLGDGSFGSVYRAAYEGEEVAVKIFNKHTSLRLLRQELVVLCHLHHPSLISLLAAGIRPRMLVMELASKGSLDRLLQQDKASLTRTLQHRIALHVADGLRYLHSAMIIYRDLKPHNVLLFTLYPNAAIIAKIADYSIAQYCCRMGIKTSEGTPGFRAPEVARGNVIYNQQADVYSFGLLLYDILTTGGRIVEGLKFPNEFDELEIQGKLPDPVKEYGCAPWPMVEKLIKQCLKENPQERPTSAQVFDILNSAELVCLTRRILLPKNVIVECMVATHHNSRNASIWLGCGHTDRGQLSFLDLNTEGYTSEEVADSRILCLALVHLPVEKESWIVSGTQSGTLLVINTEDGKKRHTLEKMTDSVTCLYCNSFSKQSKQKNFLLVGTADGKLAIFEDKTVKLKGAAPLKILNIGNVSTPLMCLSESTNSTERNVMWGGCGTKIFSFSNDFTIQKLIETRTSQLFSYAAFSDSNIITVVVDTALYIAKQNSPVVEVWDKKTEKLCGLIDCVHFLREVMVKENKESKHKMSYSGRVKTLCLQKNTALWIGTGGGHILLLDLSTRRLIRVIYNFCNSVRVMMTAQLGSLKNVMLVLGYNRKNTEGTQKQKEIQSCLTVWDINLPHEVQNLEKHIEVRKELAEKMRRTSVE

[2] = molecular target: T2, kinase-inactive GST-tagged LRRK2(D1994A) (970-2527) (human, UniProt Q5S007 970-2527, D1994A); test: peptide or protein array; BCCP-tagged full-length human proteins held on streptavidin-coated slides, pre-incubated with 100 uM cold ATP; overlaid with 130 nM GST-LRRK2 (G2019S or D1994A) with 10 uM ATP and [gamma-33P]ATP for 1 h at 30 C; washed in 0.5% SDS; radioactive signal on the spots read on phosphoscreens; buffer only as control; conditions: both partners purified
T2 construct: also called kinase-dead LRRK2(D1994A); source: bought: Invitrogen
T2 sequence (Q5S007 970-2527 D1994A): as the sequence (Q5S007 970-2527 G2019S) above, with D1025A, S1050G counted along it

binding result [1]: binds | binding result [2]: binds
B1: Protein kinase C, zeta (PRKCZ), arrayed (enzyme, human, UniProt Q05513 1-592, looked up)
chain: MPSRTGPKMEGSGGRVRLKAHYGGDIFITSVDAATTFEELCEEVRDMCRLHQQHPLTLKWVDSEGDPCTVSSQMELEEAFRLARQCRDEGLIIHVFPSTPEQPGLPCPGEDKSIYRRGARRWRKLYRANGHLFQAKRFNRRAYCGQCSERIWGLARQGYRCINCKLLVHKRCHGLVPLTCRKHMDSVMPSQEPPVDDKNEDADLPSEETDGIAYISSSRKHDSIKDDSEDLKPVIDGMDGIKISQGLGLQDFDLIRVIGRGSYAKVLLVRLKKNDQIYAMKVVKKELVHDDEDIDWVQTEKHVFEQASSNPFLVGLHSCFQTTSRLFLVIEYVNGGDLMFHMQRQRKLPEEHARFYAAEICIALNFLHERGIIYRDLKLDNVLLDADGHIKLTDYGMCKEGLGPGDTTSTFCGTPNYIAPEILRGEEYGFSVDWWALGVLMFEMMAGRSPFDIITDNPDMNTEDYLFQVILEKPIRIPRFLSVKASHVLKGFLNKDPKERLGCRPQTGFSDIKSHAFFRSIDWDLLEKKQALPPFQPQITDDYGLDNFDTQFTSEPVQLTPDDEDAIKRIDQSEFEGFEYINPLLLSTEESV
modifications: biotin on the biotin-carboxyl carrier protein tag
notes: protein kinase C zeta (PRKCZ), human, full length, spotted on the array; Held on streptavidin-coated glass slides by the biotinylated tag; also called PKC zeta; source: bought: Sigma Panorama Human Protein Function Array - Signal Transduction; expressed in insect cells

binding result [1]: binds
B2: Serine/threonine kinase 25 (STE20 homolog, yeast) (STK25), arrayed (enzyme)
chain: not shown
modifications: biotin on the biotin-carboxyl carrier protein tag
notes: serine/threonine kinase 25 (STK25), human, full length, spotted on the array; Held on streptavidin-coated glass slides by the biotinylated tag; The array was pre-incubated with 100 uM cold ATP in the substrate arrays; source: bought: Sigma Panorama Human Protein Function Array - Signal Transduction; expressed in insect cells

binding result [1]: binds
B3: TNF receptor-associated factor 2, transcript variant 1 (TRAF2), arrayed (natural protein, human, UniProt Q12933 1-501, looked up)
chain: MAAASVTPPGSLELLQPGFSKTLLGTKLEAKYLCSACRNVLRRPFQAQCGHRYCSFCLASILSSGPQNCAACVHEGIYEEGISILESSSAFPDNAARREVESLPAVCPSDGCTWKGTLKEYESCHEGRCPLMLTECPACKGLVRLGEKERHLEHECPERSLSCRHCRAPCCGADVKAHHEVCPKFPLTCDGCGKKKIPREKFQDHVKTCGKCRVPCRFHAIGCLETVEGEKQQEHEVQWLREHLAMLLSSVLEAKPLLGDQSHAGSELLQRCESLEKKTATFENIVCVLNREVERVAMTAEACSRQHRLDQDKIEALSSKVQQLERSIGLKDLAMADLEQKVLEMEASTYDGVFIWKISDFARKRQEAVAGRIPAIFSPAFYTSRYGYKMCLRIYLNGDGTGRGTHLSLFFVVMKGPNDALLRWPFNQKVTLMLLDQNNREHVIDAFRPDVTSSSFQRPVNDMNIASGCPLFCPVSKMEAKNSYVRDDAIFIKAIVDLTGL
modifications: biotin on the biotin-carboxyl carrier protein tag
notes: TNF receptor-associated factor 2 (TRAF2), human, full length, spotted on the array; Held on streptavidin-coated glass slides by the biotinylated tag; also called tumor necrosis factor receptor-associated factor 2; source: bought: Sigma Panorama Human Protein Function Array - Signal Transduction; expressed in insect cells

Reference: article PMC2951910, “Signal Transduction Protein Array Analysis Links LRRK2 to Ste20 Kinases and PKC Zeta That Modulate Neuronal Plasticity” (PLoS ONE, 2010)
